Data from patent US20140170153A1 (Novo Nordisk, published 2014).
Positions count from the first letter of the chain named. Names and notes keep the numbering of the source. Values joined by “and” are separate entries in the source; they are usually repeats but may differ in a detail not shown here. Equal values may be shown once. One block for each binder: values may come before it.

What was measured:
[1] = target: T1, human recombinant IL-21 (expressed in E. coli as the mature peptide); residues 30-162 of SEQ ID NO: 1 with an … (human, UniProt Q9HBE4 30-162); assay: cell-based or functional assay
T1 sequence (Q9HBE4 other isoform, or with tags, fused parts or gaps): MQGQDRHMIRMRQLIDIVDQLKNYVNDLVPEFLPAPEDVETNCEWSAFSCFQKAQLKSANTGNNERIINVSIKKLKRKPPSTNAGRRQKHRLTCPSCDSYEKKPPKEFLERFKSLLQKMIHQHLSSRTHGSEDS

[2] = target: T1, human recombinant IL-21 (expressed in …); assay: SPR Biacore T200, calculated KD; Exp 1
Description: (§1) Anti-human Fc monoclonal antibodies from Biacore human Fc capture kit was immobilized onto flow cells of a CM4 sensor chip according to the manufacturer's instructions. The final immobilization level of capture antibody was approximately 2,500 RU in one experiment. […] Binding of hIL-21 protein was conducted by injecting analyte over all flow cells to allow for comparative analyses of binding to different captured anti-IL-21 antibodies relative to binding to the reference flow cell. hIL-21 protein was diluted serially 1:3 to 2-162 nM into running buffer, injected at 100 μl/min for 210 s and allowed to dissociate for 600 or 14000 s. The CM4 surface was regenerated after each injection cycle of analyte via two injections of 3M MgCl₂ at 50 μl/min. This regeneration step removed the anti-IL-21 antibody and any bound IL-21 from the immobilized capture antibody surface, and allowed for the subsequent binding of the next interaction sample pair.
(§2) No significant non-specific binding to the reference control surface was observed. Binding curves were processed by double referencing (subtraction of reference surface signals as well as blank buffer injections over captured anti-IL-21 antibodies). This allowed correction for instrument noise, bulk shift and drift during sample injections.

[3] = target: T1, human recombinant IL-21 (expressed in …); assay: SPR Biacore T200, calculated KD; Exp 2
Description: as §1, §2

[4] = target: T1, human recombinant IL-21 (expressed in …); assay: SPR Biacore T200, 25 C; mAb captured by anti-human Fc, IL-21 analyte, 1:1 Langmuir
Description: (§3) Experiments were run at 25° C. and the samples were stored at 10° C. in the sample compartment. The signal (RU, response units) reported by the Biacore is directly correlated to the mass on the individual sensor chip surfaces in four serial flow cells.
Anti-human Fc monoclonal antibody from Biacore human Fc capture kit was immobilized onto flow cells of a CM4 sensor chip according to the manufacturer's instructions. The final immobilization level of capture antibody was approximately 2,000 RU in one experiment. […] Capture of the human anti-IL-21 antibody mAb37 was conducted by diluting the antibody to 0.1 μg/ml into running buffer (10 mM Hepes 0.3 M NaCl, 5 mM CaCl2, 0.05% surfactant P20, pH 8.0 containing 1 mg/ml BSA) and injected at 10 μl/min for 180 s in one of flow cells 2-4, creating a reference surface in flow cell 1 with only anti-Fc antibody immobilized. […] Binding of IL-21 protein was conducted by injecting analyte over all flow cells to allow for comparative analyses of binding to different captured anti-IL-21 antibodies relative to binding to the reference flow cell. IL-21 protein was diluted serially 1:3 to 0.2-54 nM into running buffer, injected at 100 μl/min for 210 s and allowed to dissociate for 600 or 14000 s. The CM4 surface was regenerated after each injection cycle of analyte via two injections of 3M MgCl₂ at 50 μl/min. […]

[5] = target: T1, human recombinant IL-21 (expressed in …); assay: as above; remark: listed apart in the source
Description: as §3
Anti-human Fc monoclonal antibody from Biacore human Fc capture kit was immobilized onto flow cells of a CM4 sensor chip according to the manufacturer's instructions. The final immobilization level of capture antibody was approximately 2,000 RU in one experiment. […] Capture of the human anti-IL-21 antibody mAb37 was conducted by diluting the antibody to 0.1 μg/ml into running buffer (10 mM Hepes 0.3 M NaCl, 5 mM CaCl2, 0.05% surfactant P20, pH 8.0 containing 1 mg/ml BSA) and injected at 10 μl/min for 180 s in one of flow cells 2-4, creating a reference surface in flow cell 1 with only anti-Fc antibody immobilized. […] Binding of IL-21 protein was conducted by injecting analyte over all flow cells to allow for comparative analyses of binding to different captured anti-IL-21 antibodies relative to binding to the reference flow cell. IL-21 protein was diluted serially 1:3 to 0.2-54 nM into running buffer, injected at 100 μl/min for 210 s and allowed to dissociate for 600 or 14000 s. The CM4 surface was regenerated after each injection cycle of analyte via two injections of 3M MgCl₂ at 50 μl/min. This regeneration step removed the anti-IL-21 antibody and any bound IL-21 from the immobilized capture antibody surface, and allowed for the subsequent binding of the next interaction sample pair. […] No significant non-specific binding to the reference control surface was observed.

[6] = target: T1, human recombinant IL-21 (expressed in …); assay: SPR Biacore T200, 25 C; mAb captured by anti-human Fc, hIL-21 analyte, 1:1 Langmuir; Exp 1
Description: as §1, §2

[7] = target: T1, human recombinant IL-21 (expressed in …); assay: SPR Biacore T200, 25 C; mAb captured by anti-human Fc, hIL-21 analyte, 1:1 Langmuir; Exp 2
Description: as §1, §2

[8] = target: T1, human recombinant IL-21 (expressed in …); assay: cell-based or functional assay; remark: listed apart in the source
[9] = target: T1, human recombinant IL-21 (expressed in …); assay: SPR Biacore T200; mAb captured by anti-human Fc, hIL-21 analyte
Description: as §1, §2

[10] = target: T1, human recombinant IL-21 (expressed in …); assay: crystal structure, Areaimol (CCP4)
Description: IL-21 (expressed in E. coli as the mature peptide; residues 30-162 of SEQ ID NO: 1 with an added N-terminal Methionine residue), in PBS buffer, pH 7.4 (4 tablets in 2 liter of water, GIBCO Cat. No. 18912-014 Invitrogen Corporation), and anti-IL-21 Fabs (comprising light chains and heavy chains corresponding to WT or mutants of SEQ ID No. 9 and 10, respectively, see example 6 and 14) formulated in PBS buffer, pH 7.4, were mixed in a 1:1 molar ratio. Crystals were grown with the sitting drop-technique with volumes according to Table 7. Total drop sizes were 0.2 or 0.3 μl, depending on the mixing ratio. Crystals were prepared for cryo-freezing by transferring of 3 μl of a cryo-solution, containing 75% of the precipitant solution and 25% glycerol, to the drop containing the crystal. Soakings were allowed for about one minute. The crystals were then fished into a MiTeGen MicroLoop™, flash frozen in liquid N2 and kept at a temperature of 100 K during data collection by a cryogenic N2 gas stream. Crystallographic data were collected at beam-line BL911-3 (Ursby et al., 2004) at MAX-lab, Lund, Sweden, to resolutions indicated in Table 8. Space group determination, integration and scaling of the data were made with the XDS software package (Kabsch, 2010). For the crystal complexes between hIL-21 and Fab56, Fab57 or Fab60, respectively, the Fab35/hIL-21 crystal structure were used as starting models for rigid body refinements in the Refmac5 software (Murshudov et al., 2011) of the CCP4 crystallography software suite (Bailey, 1994). Rigid body refinements were then followed by restrained crystallographic refinements, using the software programs Refmac5 and by computer graphics inspection of the electron density maps, model corrections and building using the Coot software program (Emsley et al., 2010). The procedure was cycled until no further significant improvements could be made to the model. Table 10, 11 and 13.
Table 9 show the calculated (by the software Areaimol (Lee & Richards, 1971, Saff & Kuijlaars, 1997)), average areas excluded in pair-wise interactions for the hIL-21/Fab56, hIL-21/Fab57, hIL-21/Fab59 and hIL-21/Fab60 complexes, respectively.

B1: mAb37 (hinge stabilized S241P version of mAb14) (antibody, human IgG4 S228P, kappa)
heavy: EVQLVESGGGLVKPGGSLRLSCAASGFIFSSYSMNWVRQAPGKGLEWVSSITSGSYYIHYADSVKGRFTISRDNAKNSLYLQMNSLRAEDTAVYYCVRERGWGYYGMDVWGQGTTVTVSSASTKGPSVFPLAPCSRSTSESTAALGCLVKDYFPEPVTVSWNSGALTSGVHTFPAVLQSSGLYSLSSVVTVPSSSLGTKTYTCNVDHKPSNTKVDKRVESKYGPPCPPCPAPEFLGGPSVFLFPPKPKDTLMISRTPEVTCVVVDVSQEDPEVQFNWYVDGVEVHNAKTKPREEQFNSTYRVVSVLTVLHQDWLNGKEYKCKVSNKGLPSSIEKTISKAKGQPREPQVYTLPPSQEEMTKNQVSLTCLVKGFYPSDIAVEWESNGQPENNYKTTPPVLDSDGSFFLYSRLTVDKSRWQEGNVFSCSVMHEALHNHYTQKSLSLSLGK
light: AIQLTQSPSSLSASVGDRVTITCRASQDIDSALAWYQQKPGKAPKILIHDASSLESGVPSRFSGSGSGTDFTLTISSLQPEDFATYYCQQFNSYPYTFGQGTKLEIKRTVAAPSVFIFPPSDEQLKSGTASVVCLLNNFYPREAKVQWKVDNALQSGNSQESVTEQDSKDSTYSLSSTLTLSKADYEKHKVYACEVTHQGLSSPVTKSFNRGEC
notes: Human IgG4(S241P), kappa; recombinant from HEK293-6E; also called WT mAb37
IC50 (nM) in B cell proliferation assay, Donor 1 [1]: 0.14 nM
IC50 (nM) in B cell proliferation assay, Donor 2 [1]: 0.18 nM
Kd [2]: < 0.017 nM
Kd [3]: < 0.015 nM
Kd [4]: < 0.02 nM
Kd [5]: 0.007 nM and 0.0075 nM and 0.011 nM
koff [5]: 4.5e-06 s⁻¹ and 6.4e-06 s⁻¹
kon [5]: 640000 M⁻¹ s⁻¹ and 600000 M⁻¹ s⁻¹
koff [6]: < 1e-05 s⁻¹
kon [6]: 570000 M⁻¹ s⁻¹ and 590000 M⁻¹ s⁻¹ and 580000 M⁻¹ s⁻¹
koff [7]: < 1e-05 s⁻¹
kon [7]: 660000 M⁻¹ s⁻¹ and 620000 M⁻¹ s⁻¹

B6: Fab35 (Fab fragment of mAb14/mAb37) (Fab, V domains shown)
VH: EVQLVESGGGLVKPGGSLRLSCAASGFIFSSYSMNWVRQAPGKGLEWVSSITSGSYYIHYADSVKGRFTISRDNAKNSLYLQMNSLRAEDTAVYYCVRERGWGYYGMDVWGQGTTVTVSS
VL: AIQLTQSPSSLSASVGDRVTITCRASQDIDSALAWYQQKPGKAPKILIHDASSLESGVPSRFSGSGSGTDFTLTISSLQPEDFATYYCQQFNSYPYTFGQGTKLEIKR
notes: also called anti-IL-21 Fab35
Avr Area (average areas excluded in pairwise interactions) [10]: 1060 Å^2

B8: Fab60 (Fab35 with L, D30E mutation; Fab fragment of mAb65) (Fab, V domains shown)
VH: B6 VH
VL: B6 VL with D30E
notes: also called aIL-21 Fab60
Avr Area (average areas excluded in pairwise interactions) [10]: 1100 Å^2

B9: Fab57 (Fab35 with H: K65R; Fab fragment of mAb62) (Fab, V domains shown)
VH: B6 VH with K65R
VL: B6 VL
notes: also called aIL-21 Fab57
Avr Area (average areas excluded in pairwise interactions) [10]: 1070 Å^2

B10: Fab59 (Fab35 with L, Q27N mutation; Fab fragment of mAb64) (Fab, V domains shown)
VH: B6 VH
VL: B6 VL with Q27N
notes: also called aIL-21 Fab59
Avr Area (average areas excluded in pairwise interactions) [10]: 1170 Å^2

B11: Fab56 (Fab35 with H: D62E mutation; Fab fragment of mAb61) (Fab, V domains shown)
VH: B6 VH with D62E
VL: B6 VL
notes: also called aIL-21 Fab56
Avr Area (average areas excluded in pairwise interactions) [10]: 1070 Å^2

The next lines start with the values.

IC50 (nM) in B cell proliferation assay, Donor 1 [1]: 0.22 nM
IC50 (nM) in B cell proliferation assay, Donor 2 [1]: 0.21 nM
Bioactivity as % of RM (mAb37), NK-92 assay (alamarBlue) [8]: 86.2 % of RM (mAb37)
Kd [3]: < 0.015 nM
Kd [9]: < 0.02 nM
koff [7]: < 1e-05 s⁻¹
kon [7]: 660000 M⁻¹ s⁻¹ and 670000 M⁻¹ s⁻¹
B2: mAb61 (mAb37 variant, heavy chain D62E) (antibody, human IgG4 S228P, kappa, V domains shown)
VH: B6 VH with D62E
VL: B6 VL
notes: Human IgG4(S241P), kappa

IC50 (nM) in B cell proliferation assay, Donor 1 [1]: 0.49 nM
IC50 (nM) in B cell proliferation assay, Donor 2 [1]: 0.19 nM
Bioactivity as % of RM (mAb37), NK-92 assay (alamarBlue) [8]: 96.8 % of RM (mAb37)
Kd [2]: < 0.019 nM
Kd [9]: < 0.02 nM
koff [6]: < 1e-05 s⁻¹
kon [6]: 520000 M⁻¹ s⁻¹ and 530000 M⁻¹ s⁻¹ and 540000 M⁻¹ s⁻¹
B3: mAb65 (mAb37 variant, light chain D30E) (antibody, human IgG4 S228P, kappa, V domains shown)
VH: B6 VH
VL: B6 VL with D30E
notes: Human IgG4(S241P), kappa

IC50 (nM) in B cell proliferation assay, Donor 2 [1]: 0.23 nM
Bioactivity as % of RM (mAb37), NK-92 assay (alamarBlue) [8]: 73.2 % of RM (mAb37)
Kd [2]: < 0.017 nM
Kd [9]: < 0.02 nM
koff [6]: < 1e-05 s⁻¹
kon [6]: 560000 M⁻¹ s⁻¹ and 580000 M⁻¹ s⁻¹ and 600000 M⁻¹ s⁻¹
B4: mAb62 (mAb37 variant, heavy chain K65R) (antibody, human IgG4 S228P, kappa, V domains shown)
VH: B6 VH with K65R
VL: B6 VL
notes: Human IgG4(S241P), kappa

IC50 (nM) in B cell proliferation assay, Donor 1 [1]: 0.16 nM
IC50 (nM) in B cell proliferation assay, Donor 2 [1]: 0.25 nM
Bioactivity as % of RM (mAb37), NK-92 assay (alamarBlue) [8]: 92.1 % of RM (mAb37)
B5: mAb63 (mAb37 variant, light chain R24K) (antibody, human IgG4 S228P, kappa, V domains shown)
VH: B6 VH
VL: B6 VL with R24K

IC50 (nM) in B cell proliferation assay, Donor 1 [1]: 0.8 nM
IC50 (nM) in B cell proliferation assay, Donor 2 [1]: 0.74 nM
Bioactivity as % of RM (mAb37), NK-92 assay (alamarBlue) [8]: 116 % of RM (mAb37)
B7: mAb64 (mAb37 variant, light chain Q27N) (antibody, human IgG4 S228P, kappa, V domains shown)
VH: B6 VH
VL: B6 VL with Q27N
